Assay results as given in the DeepSol protein solubility set.

Experiment: soluble on expression in E. coli; label from the status in PepcDB or PDB records

Sequence	soluble on expression in E. coli
DEYARDTKVEWREWGTAPFEDAAESGKPVLLALTVPWSAECRAMDRGTYGEPRIAANINDGFVPVRVDADRNPRVRERYTMGGFPSTVFLTPEGEVITGATFLGPDGFRGILDSVRESWDAQ	not soluble
MYCTIDDLLGQIDKSKLIELTNDRADPAVDENGQEIIHEGNANSAIEAATAVVNTYIAMRYPVPLSPVPKIVSKLTADIAIYNLFTRHYNDEDNVFVRRYRDAIRLLEKIAADEVKLTANESGIRTYARRKVFGEDFRRMYD	not soluble
VDEKALKHITEMGFSKEASRQALMDNGNNLEAALNVLLTSNKQKPVMGPP	soluble
MDANEKKEVIKKRFQEIAMSGGTCCSGGGCCGDSSSSDISRAIGYSEADIEAVPDANMGLGCGNPASIAELKPGDIVLDLGSGAGFDCFLAAQKVGNSGKVIGVDMTPEMVEKVQANARKYGYSNVEFRQGDIEALPVEDSSVDVIISNCVINLAPDKEKVFREAFRVLKLGGRLYISDLVLLDELPEDLKNDRDLLAGCVAGAVLKEEYLKLLKRAGFSVEILAEDPDISKSQYKGLPVESLKLKAWVLEHHHHHH	soluble
MLEDPGGRPRVYVDVREERSPVPSILESLGVQVIPKQLPMGDYLVSDSIIVERKTSSDFAKSLFDGRLFEQASRLAEHYETVFIIVEGPPVPRRYRGRERSLYAAMAALQLDYGIRLMNTMDPKGTALVIESLARLSTREGGQRIVIHKKPRLSDVREWQLYILQSFPGIGRRTAERILERFGSLERFFTASKAEISKVEGIGEKRAEEIKKILMTPYK	soluble
MLWQQKSFTEQTEQGTLYIVPTPIGNLEDMTFRAVRTLQEADVIAAEDTRQTKKLLAHFGIHTPLVSYHEHNKYASGRQLVEWLKEGKTVALVSDAGMPGISDPGYELIAAALAERCRVVPLPGANAALTALVASGLPTDRFLFVGFLKRAKKEKKEQLLSLKTAAETLIFYEAPHRLKETLALMYDIFGNRRIALGRELTKRFEEFIRGDLSDAVAWAEEHDIRGEFCLIVEGARDGNKQEQEGEEWWQPLSLVEHVDYYIREHSLSVKEAVKQAASDRNMSKRDVYRQYHQQQEEEKKEFL	not soluble
MFDKKLSSNDWHIQKVEMNHQVYDIETMLADSAFREHEEEQDSSLNTALPEDKTAIEAKEQEQKEKRKRWYELFKKKPKPKSSMGEFVFDQKENRIYGKGYCNRYFASYVWQGDRHIGIEDSGISRKVCKDEHLMAFELEFMENFKGNFTVTKGKDTLILDNQKMKIYLKTP	not soluble
MSEVDAQEEFHDAPEEAVIEIQKDFVAEIEQDNSNAQLVEEGDDQLVTAEADDEKSAQQVDEDRTEDQVPDITGTEYVDPMTTSMDGIEDLPANDEAQFEDTILEEDELPDQLESAENQEPRSELVSSGVEEEIIEEEDIEEIEESDYVEESAPADEPAPEEEKPQEEAPAEEPAPAEEAPQEEVPAEEPVAEETAPAEEAAVEEPVVEEAAPVEEAPEAEETAPAEEPLIEVAVEEAPAEEPVAEEAEPEAEKQEFELQAPPEGKRPRTPNDLDNPTADEEPAAELEADAGSEVPPTPKTAASEKQSVPPTPKSAAPSEVPPTPKSAAPSEVPPTPKSAAPSEVPLTPKSAAQSSVPPTPKSAVPSEAPPTPRSAAPSDVPPTPKSNGHIANGSIPGTPSVAQESAKATPAATPAATATPAATATPAATGTPKADTAFNFEETPATPRSSVPATPTESNLTTPAPKTPKTPKTPRTPRTPKTPRTPKTPAVVEPEPEPVAEEPEPVAEPEPEPEPVAEAEPEAEPAVEEEPAEEPEPAADETATEPTAEEAEPEAVEESIEKTEVVEEESAPPAARQSSPSPPPARRRPQSPSPERQRTSRHADRDITSYDEDSYRAVPPPRMPTATSFSSWSPPDKQSYTPISPFVSTANKYRNEYTSGSSYRPTNMYTSHFDDIVATGAFSSALYSTNRLIERSRSRTRERKQAMRSQRSASNYYRYSSQAPAPLRAREYSTPPTREISRAPSRNTSFVSFLDYSSAKQGELSRANSRTSIYGDSLSRSCSRANVDAYLGGGRLSRVDSYVRDIHTPYEYEVPSTYDRYRSSSRGPSYSTINGYTAYISSPSYVETESTRRMKRYQRDTSPAMVRSMYEGRIGQLERSLSREVIQKDRVCLWRLGNVVYGGLYRKKYDADLEKAVQYYSSCAKKRRF	not soluble
MAGENIIIDLNFAVSANPREVWDVLTDFDRMADFVSNLKESKVVSISEDKFTIFQNGTATYGPIRYPFESIREVRLIPYHKILTHLVSGNMHKLDGTTYLTDETGGTRVVHRTEAIPKVWIPAVVGKVFIEHEVREQFNEMRNEIIRRKRAALKKGHEKQDGRLEHHHHHH	soluble
MAHHHHHHMSGRLRLYKEKLEGYNRFYSIVKTIKMVTMAKFRQAQVRIKTRDYTLRYTEKAFSKPGQLVGDSPQAKAIYIPVMTNRGSCGALNSNVVKVIDSVASSRAYLMPLGKRGIESLSKLYPSSFRMGIVNDMHEPMHFAYATYVWENAQQLCPEADRVHVIFHRCVSAGSQKQCYYNIPSYEKWREDLADASSTENQKSRYLFANTLLNEDEQMIRDFYDFHATLAILNAVCENELSEQAARLVAVEGQLSNISTLQQKTSSLYNKTRQSSITSSLIEIISAMTSLEGNAAKGVQRTNFWEGARMK	not soluble
MDLYEKIKLLASEKKMSIRQLEETLGFGNGVINRWRKNTPGSDKLKKVADYFNISVDYLLGRTDNPNSNNLEEDEITTFFRVNTEDLTESEKDQLREELKEYLEFMKSRLKNK	soluble
MATGGLAIIQSMKHKLPPSERKLADYILAHPHKAIESTVNEISALANSSDAAVIRLCKSLGLKGFQDLKMRVAGDLAKPTFQGYRDIVPHEPLPSISEKTAGNAIQAI	soluble
MRFLFSLIGLVYSSLIKLAVPFNPKARMMVRGRWKVWRQLREGIVPGGRYIWFHAASLGEFEQGRPMIERIRSEYPDYRIVLTFFSPSGYEVRKNYEGADVIVYLPADRLPRVRKFLDLVKPEMAIFIKYDFWPCFLTELERRQIPTYLVSSIFRPSQLFFRWYGGAYKRLLHCFTHIFVQDKASRLLLEKHGIDHVSVAGDTRFDRVISVYEARKSLPLIERFAASVPEDGLVIVGGSSWPPDEEILVRYFNRNPKIKLILAPHEIDKEHLLQIISHIRRPFIRLSEATESDIARQDCLIVDSFGLLSSIYRYGQVAFIGGGFGKGIHNTPEAAVYGIPVIFGPRYEKFKEARELIDVGGGFSVSSAEEFGNLIKRIQTDKAYRDAASRAAADYIRSNAGATGYIVHRIMKLEHHHHHH	soluble
MELTKIRVKTIGYYHRDSEMKATPGRLPKNLNLACLTPMQNKEKFPNMNIEVLDSGKGELMMESLLDYISQTSCLQDEQPGFVTNKQLLVALTRTGSLAIHLFRWNGTTYLLKFNEDESVNQNFGAAFEHHCTKTDDPINENEPVRKAVMIAEIPRGKGVHSVLYSGQIDAVDNEVNRMHYELKVLSGGLTEHFWKTKSCMFYWQAVFGKADVLIIGSRTGKCPNDPKTTWPKEWPPFSVYQVETLEQNQIPESAAEECLKKVLMDPAPEWKPLEGEESVCYFLDLVEEYVKNNGDCYVFTRSDENPDWIVKEDEESVAEFRDVVRHYLAS	not soluble
MGSDKIHHHHHHMQEIHTIMKHMDALIADPSAAAFKATLPFAELLEKLHNKKALFDAALAKSAERADAGRIIGKTSHIDALAYLLDISKSEAFRRTKRAEEHYGNPSPEPSSEELAKETPEEKLAREEKEKQDLAEQAEANRIAREHGISAEKQDTIRYELEKLNDNTSLSRASLRKLAMQEATSRTPEDLRNWTRNKVIRINPTAKDPLAAVKKRSLSIGRQDHDGGAKASLYLDAKGLALLKSLMSKAKPGHLLEDSLAEDKRTKPQRQYDAFADILHRAHSDLLPARSGVGTILVSLSAKDVTNLKASGPDHRYPTSTGIKLTPLEILRLGAAKYDFVTVLDSESGRPLHLARTQRTASLYQRLALFASELVCTREGCDSPFEDNEIHHIRSWLDGGPTDIENITNICPHDHGNNNDQRDGKDNMGHMNIDPTTGRVGYQPADRRKPMRFNNTAAAAESGGAQART	not soluble
MIVTLLGTGDSPGTPILNCHCRTCEDARRKGWERKRFSVMVQNNGKTVLIDTSPDLRRQLLDCGVEKVDAVIWTHCHFDHFGGFGEFYRVQNNVKVYSTPQIHEDIGHFMKFMSYKPVEVEAFENFTIAGMDFTLLPVNHPPVSAVGVKVEWKGYKVVVSGDTNVRIPEATLREMQNPDLLIVEALAPTGRFRKHMNAKEALELAKRLNAGKVVLTHLGHFFPPHHLAIKSYPVGEDYQSFSFGEGRLDEFFGDLEHHHHHH	not soluble
MLCRNTARTGCKFFRLYHSNPIEHVKPIHIKPLTYGKESPQYKVLSLALQKFVPEHGFSERSIVESLNELGYPSSMISSIGAPNSPSFFHSSTAVMELIKFQLVDKRYRLTEGINPDVTPQYKLPSLEHLLLKRLEMDKPIGGHLSELMSQLAIPSAFLFETAIPELHRLSDDMIYFSNEKDHHDSAWYAKRLAVSSTYIGSKLFMAQDKSHNYKETFTFAKDKLHRVMRLGEYYNNTEEFAWYTLMSTVNLIKSQLVRG	not soluble
MGSDKIHHHHHHMPRTIRIYRPTELPADEALPVIYMHDGQNVFSGETASFGKGWEVHHALHTVQLHAMIVAIDSPDDGMDRYDEYAPWTDEALLMRTAYPSHRKTIGGNGKQYMHWIVHELKPYIDAQYATIPTDTTMIGSSMGGVISLYGLFAYPEVFTRVAALSTAGWANFSSLLEFIERSPGLSEDHRCYMDVGTKEVSGPMTENDYLHTNEVLAKAVQKKVQQAAYEIIPGAVHHETEWAKRMPDILRFLFSS	not soluble
MLRSQAKNVDLTSQADSRHQQKRKQAEQLDALKNPSEPAAKKQHSKGLTELRAHISGFKIDSAKRDPLGKSRTSRRDVENLPPQKSRYVDPCPHYDYDLEEAGNPDSISDYAQGIFDYYRHREVHFRVRKYLHKHPEVDVKTRAILIDWMVEIQETFELNHETLYNAVKLTDMYLCKTKNVDKNTIQKLACVAIFIAAKYDERSPPLVDDLIYLSGDRFSRDELLAMERELFATVGYDLGSPLSYRYLRRFGRVCRVDMKTLTMGRFILETSLMVYEYAMVSQSRLAAAAFVLAMRMLDKNNEYEWNPVLEKYSGFTGEEVMPLVEHMNHILHFSKDKWAQLTSVRQKYSHEVFFHVASIPMLPDTLKVVDSHTYAPVPMLSYP	not soluble
MSDHPGPGAVTPELFGVGGDWLAVTAGESGASVFRAADATRYAKCVPAADAAGLEAERDRIAWLSGQGVPGPRVLDWYAGDAGACLVTRAVPGVPADRVGADDLRTAWGAVADAVRRLHEVPVASCPFRRGLDSVVDAARDVVARGAVHPEFLPVEQRLVPPAELLARLTGELARRRDQEAADTVVCHGDLCLPNIVLHPETLEVSGFIDLGRLGAADRHADLALLLANARETWVDEERARFADAAFAERYGIAPDPERLRFYLHLDPLTWG	not soluble
MGHHHHHHENLYFQSHLYFQSHMYHDRRRTGFRQYETYMKQKQSADWQLDELLEELEALETQLNSSNGGDQLLLGVSGIPASSSRENVKSISTLPPPPPALSYHQTPQQPQLLHHHNNHLGYQNGIHQITSINSAASSCSSPDGDSAFGDSSSTESSNNRCRNSAFSSNDSCRDSLNTPSPTQVSPRNGELNAEEAKAQKIRQALEKMKEAKVTKIFVKFFVEDGEALQLLIDERWTVADTLKQLAEKNHIALMEDHCIVEEYPELYIKRVYEDHEKVVENIQMWVQDSPNKLYFMRRPDKYAFISRPELYLLTPKTSDHMEIPSGDQWTIDVKQKFVSEYFHREPVVPPEMEGFLYLKSDGRKSWKKHYFVLRPSGLYYAPKSKKPTTKDLTCLMNLHSNQVYTGIGWEKKYKSPTPWCISIKLTALQMKRSQFIKYICAEDEMTFKKWLVALRIAKNGAELLENYERACQIRRETLGPASSMSAASSSTAISEVPHSLSHHQRTPSVASSIQLSSHMMNNPTHPLSVNVRNQSPASFSVNSCQQSHPSRTSAKLEIQYDEQPTGTIKRAPLDVLRRVSRASTSSPTIPQEESDSDEEFPAPPPVASVMRMPPPVTPPKPCTPLTSKKAPPPPPKRSDTTKLQSASPMAPAKNDLEAALARRREKMATMEC	not soluble
